Values belong to the binder of their own block, whether it stands above or below them.
Molecular target: T1, human LgR5 (human, UniProt O75473 22-907)
T1 construct: This one molecule is used for transfected 293 cells and for endogenous LgR5 in human cells and tissues; also called leucine-rich repeat-containing G protein-coupled receptor 5
T1 sequence: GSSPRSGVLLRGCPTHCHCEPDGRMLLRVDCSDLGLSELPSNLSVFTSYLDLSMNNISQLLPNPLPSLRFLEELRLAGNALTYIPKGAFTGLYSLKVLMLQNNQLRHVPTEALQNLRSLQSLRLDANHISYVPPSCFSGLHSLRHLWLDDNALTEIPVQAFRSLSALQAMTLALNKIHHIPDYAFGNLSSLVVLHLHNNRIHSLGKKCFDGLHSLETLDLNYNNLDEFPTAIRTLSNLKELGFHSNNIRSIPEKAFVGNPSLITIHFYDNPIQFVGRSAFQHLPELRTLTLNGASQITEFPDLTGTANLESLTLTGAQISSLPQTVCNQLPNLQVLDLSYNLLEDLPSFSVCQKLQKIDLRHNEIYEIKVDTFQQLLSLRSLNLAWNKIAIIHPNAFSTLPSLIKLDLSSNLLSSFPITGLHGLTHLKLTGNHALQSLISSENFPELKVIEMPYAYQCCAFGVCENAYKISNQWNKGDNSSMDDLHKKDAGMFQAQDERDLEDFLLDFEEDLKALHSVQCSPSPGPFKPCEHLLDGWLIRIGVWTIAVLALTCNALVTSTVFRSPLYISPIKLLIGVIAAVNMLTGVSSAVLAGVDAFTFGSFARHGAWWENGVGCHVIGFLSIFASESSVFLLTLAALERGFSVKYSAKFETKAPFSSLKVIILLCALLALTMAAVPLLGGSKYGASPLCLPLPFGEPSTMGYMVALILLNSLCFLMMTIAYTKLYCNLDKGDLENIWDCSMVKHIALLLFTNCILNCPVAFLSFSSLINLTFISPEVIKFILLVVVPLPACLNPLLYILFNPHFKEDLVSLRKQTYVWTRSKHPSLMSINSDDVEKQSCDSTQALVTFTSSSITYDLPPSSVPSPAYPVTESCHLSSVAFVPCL
Experiment: IHC on SW403 colon cancer cell line
Description: Staining with antibody LGR5.26-1 was compared to staining with antibody LGR5.1-12 in CXF233 (human colon tumor model; Oncotest) xenograft tumors and in various colon cancer cell lines. Immunohistochemistry (IHC) for Lgr5 was performed on a Dako Universal Autostainer (Dako, Carpinteria, Calif.). Briefly, formalin-fixed, paraffin-embedded tumor tissue were deparaffinized and antigen unmasking was performed in a PT Module (Thermo Scientific, Kalamazoo, Mich.) with Target Retrieval pH 6 (Dako) at 99° C. for 20 minutes. Endogenous peroxidase was inhibited with treatment of 3% H202 in PBS for 4 minutes and endogenous biotin was blocked using the Avidin/Biotin blocking kit (Vector Labs, Burlingame, Calif.). Endogenous IgGs were blocked using 10% donkey serum in 3% BSA/PBS and primary antibody to Lgr5 (LGR5.1-12 or 26-1) was incubated at 4 μg/ml for 60 minutes at room temperature. […] Antibody binding was detected with Metal enhanced DAB (Pierce Rockford, Ill.) for 5 minutes at room temperature and sections were counterstained with Mayer's Hematoxylin (Rowley Biochemical, Danvers, Mass.).
Each cell line was also characterized by lgr5 gene expression using RNAseq data into the following levels of expression: none, very low, low, moderate, and high. In addition, LgR5 levels were determined in the cell lines by IHC, substantially as described above.

binding result: binds
B1: antibody LGR5.1-12 (antibody, V domains shown)
VH: QSLEESGGGLVQPEGSLTLTCTASGFSFSRTYWICWDRQAPGKGLEWIACIYAGGSDNTYYASWAKGRFTISKTSSTTVTLQVTSLTAADTATYFCARYYAGSSEYFNLWGPGTLVTVSS
VL: AYDMTQTPASVEVAVGGTVTIKCQASQSIGSNLAWYQQKPGQPPKLLIYGASNLASGVSSRFKGSGSGTEFTLTISDLECADAATYYCQTTYGSSSDGFFWTFGGGTEVVVKG
notes: also called αLgR5.1-12; antibody 1-12

binding result: binds
B2: antibody LGR5.26-1 (antibody, V domains shown)
VH: QSLEESGGDLVKPGGTLTLTCTASGIDFSYYSYMCWVRQAPGKGLEWIACIYAGTSGSTYYASWAKGRFTISKTSSTTVTLQMISLTAADTATYFCARSYYTFGVNGYAWDLWGPGTLVTVSS
VL: AFELTQTPSSVEAAVGGTVTIKCQASQSISVGLAWYQQKPGQPPKLLIYKASTLASGVPSRFKGSRSGTEFTLTISDLECADAATYYCQSYYDSSTTANVFGGGTEVVVKG
notes: also called αLgR5.26-1; antibody 26-1
